# Laboratory results taken from paper PMC8219681, “Inhibition of MRN activity by a telomere protein motif” (Nature Communications, 2021).
# B1: Rad50 (S. cerevisiae, FLAG-tagged at the C terminus) [S. cerevisiae] / MBP-Rif2 (S. cerevisiae Rif2, wild type) [S. cerevisiae] (parent complex)
# chain 1: MSAIYKLSIQGIRSFDSNDRETIEFGKPLTLIVGMNGSGKTTIIECLKYATTGDLPPNSKGGVFIHDPKITGEKDIRAQVKLAFTSANGLNMIVTRNIQLLMKKTTTTFKTLEGQLVAINNSGDRSTLSTRSLELDAQVPLYLGVPKAILEYVIFCHQEDSLWPLSEPSNLKKKFDEIFQAMKFTKALDNLKSIKKDMSVDIKLLKQSVEHLKLDKDRSKAMKLNIHQLQTKIDQYNEEVSEIESQLNEITEKSDKLFKSNQDFQKILSKVENLKNTKLSISDQVKRLSNSIDILDLSKPDLQNLLANFSKVLMDKNNQLRDLETDISSLKDRQSSLQSLSNSLIRRQGELEAGKETYEKNRNHLSSLKEAFQHKFQGLSNIENSDMAQVNHEMSQFKAFISQDLTDTIDQFAKDIQLKETNLSDLIKSITVDSQNLEYNKKDRSKLIHDSEELAEKLKSFKSLSTQDSLNHELENLKTYKEKLQSWESENIIPKLNQKIEEKNNEMIILENQIEKFQDRIMKTNQQADLYAKLGLIKKSINTKLDELQKITEKLQNDSRIRQVFPLTQEFQRADLEMDFQKLFINMQKNIAINNKKMHELDRRYTNALYNLNTIEKDLQDNQKSKEKVIQLLSENLPEDCTIDEYNDVLEETELSYKTALENLKMHQTTLEFNRKALEIAERDSCCYLCSRKFENESFKSKLLQELKTKTDANFEKTLKDTVQNEKEYLHSLRLLEKHIITLNSINEKIDNSQKCLEKAKEETKTSKSKLDELEVDSTKLKDEKELAESEIRPLIEKFTYLEKELKDLENSSKTISEELSIYNTSEDGIQTVDELRDQQRKMNDSLRELRKTISDLQMEKDEKVRENSRMINLIKEKELTVSEIESSLTQKQNIDDSIRSKRENINDIDSRVKELEARIISLKNKKDEAQSVLDKVKNERDIQVRNKQKTVADINRLIDRFQTIYNEVVDFEAKGFDELQTTIKELELNKAQMLELKEQLDLKSNEVNEEKRKLADSNNEEKNLKQNLELIELKSQLQHIESEISRLDVQNAEAERDKYQEESLRLRTRFEKLSSENAGKLGEMKQLQNQIDSLTHQLRTDYKDIEKNYHKEWVELQTRSFVTDDIDVYSKALDSAIMKYHGLKMQDINRIIDELWKRTYSGTDIDTIKIRSDEVSSTVKGKSYNYRVVMYKQDVELDMRGRCSAGQKVLASIIIRLALSETFGANCGVIALDEPTTNLDEENIESLAKSLHNIINMRRHQKNFQLIVITHDEKFLGHMNAAAFTDHFFKVKRDDRQKSQIEWVDINRVTY
# chain 2: MEHVDSDFAPIRRSKKVVDSDKIVKAISDDLEQKNFTVLRKLNLVPIKKSVSSPKVCKPSPVKERVDHVFYQKFKSMALQELGTNYLSISYVPSLSKFLSKNLRSMKNCIVFFDKVEHIHQYAGIDRAVSETLSLVDINVVIIEMNDYLMKEGIQSSKSKECIESMGQASYSGQLDFEASEKPSNHTSDLMMMVMRKINNDESIDHIVYFKFEQLDKLSTSTIIEPSKLTEFINVLSVLEKSNNIAFKVLIYSNNVSISSLLSTSLKKKLNTKYTVFEMPILTCAQEQEYLKKMIKFTFDSGSKLLQSYNSLVTCQLNNKESNLAIFFEFLKVFPHPFTYLFNAYTEIIVQSRTFDELLDKIRNRLTIKNYPHSAYNFKKNQRLPLKLTRKVHDR
# Variants of: B1
# Assay: pull-down (amylose-immobilized MBP-Rif2 bait, Western blot with anti-Rad50 antibody, quantified); three independent blots; mean with SEM; parent: 100; read off a plot
row,percent of parent [Relative value],Variant
1,~16,chain 1 K81I
